Results on three molecules are retold here after patent publication US20200010567A1 (NEURIMMUNE, published 2020).

One may read the EC50 as the concentration needed to bring the measured effect to its halfway point. Higher therefore signals a less potent agent.

The target in one assay is T1, GA6: H-(GA)6HHHHHH-NH2.
T1 peptide: H-GAGAGAGAGAGAHHHHHH-NH2
Description: indirect ELISA, coated His-tagged peptide. An excerpt:
(§1) In brief, dipeptide repeat proteins were synthesized and purified by Schafer-N (Copenhagen, Denmark): GA₂₀: H-(GA)₂₀HHHHHH-NH₂; GA₁₀: H-(GA)₁₀HHHHHH-NH₂; GA₆: H-(GA)₆HHHHHH-NH₂; GA₅: H-(GA)₅HHHHHH-NH₂; GA₄: H-(GA)₄HHHHHH-NH₂; GA₃: H-(GA)₃HHHHHH-NH₂; GA₂: H-(GA)₂HHHHHH-NH₂; GP₂₀: H-(GP)₂₀HHHHHH-NH₂; GP₁₀: H-(GP)₁₀HHHHHH-NH₂; GP₆: H-(GP)₆HHHHHH-NH₂; GP₅: H-(GP)₅HHHHHH-NH₂; GP₄: H-(GP)₄HHHHHH-NH₂; GP₃: H-(GP)₃HHHHHH-NH₂; GP₂: H-(GP)₂HHHHHH-NH₂. GR₂₀: H-(GR)₂₀HHHHHH-NH₂; GR₁₀: H-(GR)₁₀HHHHHH-NH₂; GR₆: H-(GR)₆HHHHHH-NH₂; GR₅: H-(GR)₅HHHHHH-NH₂; GR₄: H-(GR)₄HHHHHH-NH₂; GR₃: H-(GR)₃HHHHHH-NH₂; GR₂: H-(GR)₂HHHHHH-NH₂; PA₂₀: H-(PA)₂₀HHHHHH-NH₂; PA₁₀: H-(PA)₁₀HHHHHH-NH₂; PA₆: H-(PA)₆HHHHHH-NH₂; PA₅: H-(PA)₅HHHHHH-NH₂; PA₄: H-(PA)₄HHHHHH-NH₂; PA₃: H-(PA)₃HHHHHH-NH₂; PA₂: H-(PA)₂HHHHHH-NH₂; PR₂₀: H-(PR)₂₀HHHHHH-NH₂; PR₁₀: H-(PR)₁₀HHHHHH-NH₂; PR₆: H-(PR)₆HHHHHH-NH₂; PR₅: H-(PR)₅HHHHHH-NH₂; PR₄: H-(PR)₄HHHHHH-NH₂; PR₃: H-(PR)₃HHHHHH-NH₂; PR₂: H-(PR)₂HHHHHH-NH₂. 96-well microplates (Corning Incorporated, Corning, USA) were coated with dipeptide repeat protein peptides at a concentration of 50 μg/ml in coating buffer (15 mM Na₂CO₃, 35 mM NaHCO₃, pH 9.42). Non-specific binding sites were blocked for 1 h at room temperature with PBS/0.1% Tween®-20 containing 2% BSA (Sigma-Aldrich, Buchs, Switzerland). Primary antibodies were diluted to the indicated concentrations and incubated 1 h at room temperature, followed by incubation with a donkey anti-human IgG Fcγ-specific antibody conjugated with HRP (Jackson ImmunoResearch Laboratories, Inc., West Grove, USA). Binding was determined by measurement of HRP activity in a standard colorimetric assay. EC₅₀ values were estimated by non-linear regression using GraphPad Prism software (San Diego, USA).

Another assay addresses T2, GA10: H-(GA)10HHHHHH-NH2 (C-terminal amide).
T2 peptide: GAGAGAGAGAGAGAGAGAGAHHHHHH
Description: indirect ELISA, coated His-tagged peptide.
From the text: as §1

The target in a further assay is T3, GA20: H-(GA)20HHHHHH-NH2 (C-terminal amide).
T3 peptide: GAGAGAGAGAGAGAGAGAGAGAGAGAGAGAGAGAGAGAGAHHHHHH
Description: indirect ELISA, coated His-tagged peptide.
From the text: as §1
(ELISA stands for enzyme-linked immunosorbent assay.)

The target in assay [1] is T4, transactive response DNA binding protein 43 (UniProt Q13148 1-414, limits assumed).
T4 construct: also called TDP-43
T4 sequence (Q13148 whole entry): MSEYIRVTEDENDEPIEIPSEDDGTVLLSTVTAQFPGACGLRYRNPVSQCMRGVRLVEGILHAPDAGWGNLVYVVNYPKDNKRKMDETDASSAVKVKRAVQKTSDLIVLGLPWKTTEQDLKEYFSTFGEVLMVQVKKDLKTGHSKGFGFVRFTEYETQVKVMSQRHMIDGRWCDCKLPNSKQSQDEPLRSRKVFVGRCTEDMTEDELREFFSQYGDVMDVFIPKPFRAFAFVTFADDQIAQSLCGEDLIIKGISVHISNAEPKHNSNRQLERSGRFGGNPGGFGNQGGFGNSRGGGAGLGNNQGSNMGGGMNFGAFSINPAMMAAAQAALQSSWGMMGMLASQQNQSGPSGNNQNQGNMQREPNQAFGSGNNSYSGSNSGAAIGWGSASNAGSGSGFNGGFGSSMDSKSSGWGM
Description: indirect ELISA, coated protein. On the procedure: (§2) 96-well microplates (Corning) were coated with different target proteins at a concentration of 1-10 μg/ml in coating buffer (15 mM Na₂CO₃, 35 mM NaHCO₃, pH 9.42). Non-specific binding sites were blocked for 1 h at RT with PBS/0.1% Tween®-20 containing 2% BSA (Sigma-Aldrich, Buchs, Switzerland). […] Binding was determined using donkey anti-human IgG Fcγ-specific antibody conjugated with HRP (Jackson ImmunoResearch Laboratories, Inc., West Grove, USA) followed by measurement of HRP activity in a standard colorimetric assay. Signals for target protein were calculated in fold increase above median.

In another assay the target is Tau (UniProt P10636-8 1-441, limits assumed). In words: indirect ELISA, coated protein. On the procedure: as §2
Chain of Tau (P10636 other isoform, or with tags, fused parts or gaps limits assumed): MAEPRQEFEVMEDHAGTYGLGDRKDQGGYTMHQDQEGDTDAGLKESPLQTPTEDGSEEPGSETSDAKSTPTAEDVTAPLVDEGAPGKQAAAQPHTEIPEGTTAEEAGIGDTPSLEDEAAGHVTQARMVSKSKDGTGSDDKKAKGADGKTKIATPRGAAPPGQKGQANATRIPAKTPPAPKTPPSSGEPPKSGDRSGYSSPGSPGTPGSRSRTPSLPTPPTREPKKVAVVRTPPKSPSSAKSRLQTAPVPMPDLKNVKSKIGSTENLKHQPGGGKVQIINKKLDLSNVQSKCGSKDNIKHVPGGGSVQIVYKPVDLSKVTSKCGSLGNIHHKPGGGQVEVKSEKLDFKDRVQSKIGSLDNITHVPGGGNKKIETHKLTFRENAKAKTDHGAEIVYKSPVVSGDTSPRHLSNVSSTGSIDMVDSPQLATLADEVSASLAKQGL
A further assay concerns the target transthyrethin (UniProt P02766 21-147). Description: indirect ELISA, coated protein. How it is done: as §2
The target in assay [2] is T5, full-length amyloid precursor protein (UniProt P05067 18-770, limits assumed).
T5 construct: also called flAPP
T5 sequence (P05067 18-770 limits assumed): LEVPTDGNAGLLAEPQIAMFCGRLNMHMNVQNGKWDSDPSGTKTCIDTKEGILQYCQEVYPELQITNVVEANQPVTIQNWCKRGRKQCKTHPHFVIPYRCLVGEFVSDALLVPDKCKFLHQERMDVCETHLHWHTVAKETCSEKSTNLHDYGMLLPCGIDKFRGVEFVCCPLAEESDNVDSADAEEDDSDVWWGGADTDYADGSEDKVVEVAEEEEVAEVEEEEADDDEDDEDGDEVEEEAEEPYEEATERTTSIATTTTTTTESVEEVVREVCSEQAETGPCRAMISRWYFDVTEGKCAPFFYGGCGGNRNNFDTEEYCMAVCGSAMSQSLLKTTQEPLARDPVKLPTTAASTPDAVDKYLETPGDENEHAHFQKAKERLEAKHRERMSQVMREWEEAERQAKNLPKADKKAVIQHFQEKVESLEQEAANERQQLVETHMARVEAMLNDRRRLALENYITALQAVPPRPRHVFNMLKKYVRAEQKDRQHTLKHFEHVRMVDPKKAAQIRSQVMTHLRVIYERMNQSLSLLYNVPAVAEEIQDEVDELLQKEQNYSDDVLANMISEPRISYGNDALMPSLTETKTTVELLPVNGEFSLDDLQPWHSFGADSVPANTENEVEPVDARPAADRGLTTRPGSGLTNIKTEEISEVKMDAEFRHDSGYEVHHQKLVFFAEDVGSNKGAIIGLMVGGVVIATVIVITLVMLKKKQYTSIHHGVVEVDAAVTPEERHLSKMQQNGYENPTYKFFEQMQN
In words: indirect ELISA, coated protein. On the procedure:
as §2

A further assay deals with T6, (PR)15: H-C(PR)15-OH.
T6 construct: synthetic, not coupled to BSA; also called poly-PR DPR protein peptide
T6 peptide: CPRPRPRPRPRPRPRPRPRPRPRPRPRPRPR
In words: indirect ELISA, coated peptide. How it is done: (§3) In brief, dipeptide repeat proteins were synthesized and purified by Schafer-N(Copenhagen, Denmark): (GA)₁₅: H-CHHHHHH(GA)₁₅-OH; (GP)₁₅: H-C(GP)₁₅-OH; (GR)₁₅: H-C(GR)₁₅-OH; (PA)₁₅: H-C(PA)₁₅-OH; (PR)₁₅: H—C(PR)₁₅-OH. 96-well microplates (Corning Incorporated, Corning, USA) were coated with dipeptide repeat protein peptides at a concentration of either 5 μg/ml or 20 μg/ml in coating buffer (15 mM Na₂CO₃, 35 mM NaHCO₃, pH 9.42). Non-specific binding sites were blocked for 1 h at room temperature with PBS/0.1% Tween®-20 containing 2% BSA (Sigma-Aldrich, Buchs, Switzerland). Primary antibodies were diluted to the indicated concentrations and incubated for 1 h at room temperature, followed by incubation with a donkey anti-human IgG Fcγ-specific antibody conjugated with HRP (Jackson ImmunoResearch Laboratories, Inc., West Grove, USA). Binding was determined by measurement of HRP activity in a standard colorimetric assay. EC₅₀ values were estimated by non-linear regression using GraphPad Prism software (San Diego, USA). The binding specificity and EC₅₀ of human-derived antibodies for C9orf72 dipeptide repeat protein peptides (GA)₁₅, (GP)₁₅, (GR)₁₅, (PA)₁₅ and (PR)₁₅ were determined by indirect ELISA.

The next assay deals with T7, (PA)15: H-C(PA)15-OH.
T7 construct: synthetic, not coupled to BSA; also called poly-PA DPR protein peptide
T7 peptide: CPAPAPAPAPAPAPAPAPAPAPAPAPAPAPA
In words: indirect ELISA, coated peptide. How it is done:
as §3

For another assay, the target named is T8, (GR)15: H-C(GR)15-OH.
T8 construct: synthetic, not coupled to BSA; also called poly-GR DPR protein peptide
T8 peptide: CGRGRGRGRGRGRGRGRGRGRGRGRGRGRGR
Description: indirect ELISA, coated peptide. On the procedure:
as §3

Another assay concerns the target T9, (GP)15: H-C(GP)15-OH.
T9 construct: synthetic, not coupled to BSA; also called poly-GP DPR protein peptide
T9 peptide: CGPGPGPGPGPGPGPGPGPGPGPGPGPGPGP
Description: indirect ELISA, coated peptide. On the procedure:
as §3

B1: NI-308.5G2 (antibody, V domains shown)
VH: EVQLVQSGADLRNPGASVTVSCTASGYHFADNAINWLRQAPGQRLEWMGWINIYSGNTKYSQNFQGRVTFTRNTSASTAFMHLRSLRSEDTAVYFCARDPDSSGYYLPYFDYWGQGTLVTVSS
VL: DIQLTQSPDSLTLSLGERATINCKSSQSVFYNSNNKNYLAWYQQKPGQPPKLLMYWASTRESGVTDRFSGSGSGTDFTLTITNLQAEDVAVYYCQQFYSSPLTFGGGTKVEIK
notes: Recombinant complete human IgG1, kappa
For B1, the EC50 with GA6: H-(GA)6HHHHHH-NH2 was more than 200 nM; with GA10: H-(GA)10HHHHHH-NH2 it was 5.7 nM; with GA20: H-(GA)20HHHHHH-NH2, 18.2 nM. Moreover, the binding result is on record as “no binding (tested: 20 nM)” in assay [1]; “no binding (tested: 20 nM)” in the assay with Tau; “no binding (tested: 20 nM)” with transthyrethin; “no binding (tested: 20 nM)” in assay [2]; “no binding” in the assay with (PR)15: H-C(PR)15-OH; “no binding” with (PA)15: H-C(PA)15-OH. In the assay with (GR)15: H-C(GR)15-OH, the binding result was “no binding”.

B2: NI-308.18F7 (antibody, V domains shown)
VH: QVQLQESGPGLVKPSETLSVTCTVSGGSINDYYWNWIRQPAGKGLEWIGRIYASGTINYNPSLQSRVTMSIDTSKNQFSLDLISVSAADTAVYYCARWGQVVGDYYYGMDVWGQGTTVTVSS
VL: EIVLTQSPLSLSVTPGEPASISCKSSQSLQHTNGYNYLDWYLLKPGQSPQLLIFLTSNRASGVPDRFSGSGSGTNFTLKISRVEAEDVGVYYCMEGIQLWTFGQGTKLEIK
notes: as for B1
B2: the figures for the EC50 with GA6: H-(GA)6HHHHHH-NH2, with GA10: H-(GA)10HHHHHH-NH2 and with GA20: H-(GA)20HHHHHH-NH2 were more than 200 nM, 0.78 nM and 0.83 nM, respectively. Besides, the binding result in assay [1] is given as “no binding (tested: 20 nM)”; with Tau, “no binding (tested: 20 nM)”; with transthyrethin it was “no binding (tested: 20 nM)”; in assay [2], “no binding (tested: 20 nM)”; in the assay with (PR)15: H-C(PR)15-OH it was “no binding”; in the assay with (PA)15: H-C(PA)15-OH it was “no binding”. Moreover, the binding result with (GP)15: H-C(GP)15-OH and with (GR)15: H-C(GR)15-OH was “no binding” throughout.

B3: NI-308.45C2 (antibody, V domains shown)
VH: QLQLQESGPGLVKPSQILSLTCAISGDSVFSNSAAWNWIRQSPSRGLEWLGRTYYRSKWDNDYAPSVKSRISINPDTSKNQFSLQLNSVTPEDTAVYYCAREVAYCGGDCYSVSFDYWGQGTLVTVSS
VL: not shown
notes: as for B1
Take B3: the figures for the EC50 in the assay with GA6: H-(GA)6HHHHHH-NH2, with GA10: H-(GA)10HHHHHH-NH2 and in the assay with GA20: H-(GA)20HHHHHH-NH2 were more than 200 nM, 7.6 nM and 9.6 nM, respectively. Moreover, the binding result in assay [1] is on record as “no binding (tested: 20 nM)”; with Tau, “no binding (tested: 20 nM)”; with transthyrethin, “no binding (tested: 20 nM)”; in [2], “no binding (tested: 20 nM)”; with (PR)15: H-C(PR)15-OH, “no binding”; with (PA)15: H-C(PA)15-OH, “no binding”. The binding result with (GP)15: H-C(GP)15-OH and in the assay with (GR)15: H-C(GR)15-OH was “no binding” throughout.
